Results as given in the supplement of paper PMC7125110.
± gives the standard error. For some assays here: This sample holds only a part of the variants without activity.

B1: glmS ribozyme (parent)
chain: AUAAAAGCGCCAGAACUACAGAAAUGUAGUUGACGAGGAGGAGGUUUAUCGAAUUUUCGGCGGAUGCCUCCAAA

Columns and labels:
Details in all cases: with glucosamine-6-phosphate
[1] = variants of: B1; test: kcat; higher = faster cleavage; RNA array
Summary of the method: (§1)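 E. coli RNA polymerase transcribed barcoded ribozyme variants in situ on sequenced MiSeq chips, which were tracked via a hybridised Cy3 probe at 37 °C. Tiles were imaged over ~14 h after glucosamine-6-phosphate (40 μM to 10 mM) in HEPES/KCl/Mg(OAc)2 buffer was flowed in. Normalised per-tile medians were fit to one- or two-exponential decays for kobs, and kcat and KM came from weighted Michaelis–Menten fits.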

[2] = variants of: B1; test: KM; higher = weaker cofactor use; RNA array
Summary of the method: as §1

[3] = variants of: B1; test: self-cleavage kobs at 640 uM GlcN6P; higher = faster cleavage; RNA array
Summary of the method: as §1

[4] = variants of: B1; test: self-cleavage kobs at 2500 uM GlcN6P; higher = faster cleavage; RNA array
Summary of the method: as §1

[5] = variants of: B1; test: self-cleavage kobs at 10000 uM GlcN6P; higher = faster cleavage; RNA array
Summary of the method: as §1

[6] = variants of: B1; test: self-cleavage kobs at 160 uM GlcN6P; higher = faster cleavage; RNA array
Summary of the method: as §1

[7] = variants of: B1; test: self-cleavage kobs at 40 uM GlcN6P; higher = faster cleavage; RNA array
Summary of the method: as §1

## A52U U54A
[1]
  kcat: 0.000204 ± 9.2e-06 s⁻¹
[2]
  KM: 1670 ± 180 µM
[3]
  self-cleavage kobs at 640 uM GlcN6P: 5.55e-05 ± 8.3e-06 s⁻¹
[4]
  self-cleavage kobs at 2500 uM GlcN6P: 0.000132 ± 2.1e-05 s⁻¹
[5]
  self-cleavage kobs at 10000 uM GlcN6P: 0.000172 ± 1.8e-05 s⁻¹

## G51A C71A
[1]
  kcat: 1.9e-05 ± 9e-07 s⁻¹
[2]
  KM: 105 ± 32 µM

## U49G U65A
[1]
  kcat: 2.22e-05 ± 4.5e-06 s⁻¹
[6]
  self-cleavage kobs at 160 uM GlcN6P: < 1e-05 s⁻¹

## U49G U65G
[1]
  kcat: 0.0002 ± 2.3e-05 s⁻¹
[2]
  KM: 6050 ± 1500 µM
[4]
  self-cleavage kobs at 2500 uM GlcN6P: 6.08e-05 ± 1.7e-05 s⁻¹
[5]
  self-cleavage kobs at 10000 uM GlcN6P: 0.000124 ± 1.8e-05 s⁻¹

## C50A G62U
[1]
  kcat: < 1e-05 s⁻¹
[7]
  self-cleavage kobs at 40 uM GlcN6P: < 1e-05 s⁻¹
[5]
  self-cleavage kobs at 10000 uM GlcN6P: < 1e-05 s⁻¹

## U49A C61U
[1]
  kcat: < 1e-05 s⁻¹

## A52C C67U
[1]
  kcat: 1.21e-05 ± 4.7e-06 s⁻¹

## C50U C61A C68U
[1]
  kcat: 2.59e-05 ± 6.9e-06 s⁻¹

## U47G U55C
[1]
  kcat: 0.00713 ± 0.0025 s⁻¹
[2]
  KM: 1030 ± 470 µM
[7]
  self-cleavage kobs at 40 uM GlcN6P: 0.000233 ± 4.3e-05 s⁻¹
[6]
  self-cleavage kobs at 160 uM GlcN6P: 0.00147 ± 0.00034 s⁻¹
[3]
  self-cleavage kobs at 640 uM GlcN6P: 0.00372 ± 0.00087 s⁻¹
[4]
  self-cleavage kobs at 2500 uM GlcN6P: 0.00386 ± 0.0012 s⁻¹
[5]
  self-cleavage kobs at 10000 uM GlcN6P: 0.00759 ± 0.0024 s⁻¹

## U47G U55G
[1]
  kcat: 0.00601 ± 0.0021 s⁻¹
[7]
  self-cleavage kobs at 40 uM GlcN6P: 0.000247 ± 4.9e-05 s⁻¹
[3]
  self-cleavage kobs at 640 uM GlcN6P: 0.00195 ± 0.00043 s⁻¹
[4]
  self-cleavage kobs at 2500 uM GlcN6P: 0.00249 ± 0.001 s⁻¹
[5]
  self-cleavage kobs at 10000 uM GlcN6P: 0.00706 ± 0.0012 s⁻¹

## C50G U55G
[1]
  kcat: 3.86e-05 ± 1.8e-05 s⁻¹
[6]
  self-cleavage kobs at 160 uM GlcN6P: 7.28e-05 ± 1.9e-05 s⁻¹
[4]
  self-cleavage kobs at 2500 uM GlcN6P: 4.97e-05 ± 1.6e-05 s⁻¹

## A48U U55A
[1]
  kcat: 0.000475 ± 0.0001 s⁻¹
[2]
  KM: 1310 ± 530 µM
[6]
  self-cleavage kobs at 160 uM GlcN6P: 4.63e-05 ± 1.3e-05 s⁻¹
[3]
  self-cleavage kobs at 640 uM GlcN6P: 0.000183 ± 2.7e-05 s⁻¹
[4]
  self-cleavage kobs at 2500 uM GlcN6P: 0.000269 ± 3.9e-05 s⁻¹
[5]
  self-cleavage kobs at 10000 uM GlcN6P: 0.000532 ± 0.0001 s⁻¹

## A48C A53U
[1]
  kcat: 0.000244 ± 1.5e-05 s⁻¹
[2]
  KM: 2410 ± 320 µM
[3]
  self-cleavage kobs at 640 uM GlcN6P: 4.84e-05 ± 1.1e-05 s⁻¹
[4]
  self-cleavage kobs at 2500 uM GlcN6P: 0.000131 ± 2e-05 s⁻¹
[5]
  self-cleavage kobs at 10000 uM GlcN6P: 0.000191 ± 3e-05 s⁻¹

## A48C A53C
[1]
  kcat: 9.8e-05 ± 1.5e-05 s⁻¹
[2]
  KM: 4010 ± 1400 µM
[4]
  self-cleavage kobs at 2500 uM GlcN6P: 3.99e-05 ± 1.2e-05 s⁻¹
[5]
  self-cleavage kobs at 10000 uM GlcN6P: 6.89e-05 ± 1.7e-05 s⁻¹

## A48C U54G
[1]
  kcat: 0.000498 ± 0.00012 s⁻¹
[2]
  KM: 2740 ± 1200 µM
[3]
  self-cleavage kobs at 640 uM GlcN6P: 0.000114 ± 1.4e-05 s⁻¹
[4]
  self-cleavage kobs at 2500 uM GlcN6P: 0.000222 ± 2.4e-05 s⁻¹
[5]
  self-cleavage kobs at 10000 uM GlcN6P: 0.000402 ± 5e-05 s⁻¹

## C50A C71G
[1]
  kcat: 1.89e-05 ± 5.7e-06 s⁻¹

## C50A C71A
[1]
  kcat: 1.53e-05 ± 3.9e-06 s⁻¹

## A53C C68G
[1]
  kcat: < 1e-05 s⁻¹

## A53U G60A
[1]
  kcat: < 1e-05 s⁻¹
[7]
  self-cleavage kobs at 40 uM GlcN6P: < 1e-05 s⁻¹

## A53C G60A
[1]
  kcat: 2.08e-05 ± 2.9e-06 s⁻¹
[2]
  KM: 7110 ± 2300 µM
[7]
  self-cleavage kobs at 40 uM GlcN6P: < 1e-05 s⁻¹
[6]
  self-cleavage kobs at 160 uM GlcN6P: < 1e-05 s⁻¹

## A53G U56A
[1]
  kcat: 0.0133 ± 0.0047 s⁻¹
[2]
  KM: 1830 ± 890 µM
[7]
  self-cleavage kobs at 40 uM GlcN6P: 0.000437 ± 9e-05 s⁻¹
[6]
  self-cleavage kobs at 160 uM GlcN6P: 0.00116 ± 0.00021 s⁻¹
[3]
  self-cleavage kobs at 640 uM GlcN6P: 0.00273 ± 0.00051 s⁻¹
[4]
  self-cleavage kobs at 2500 uM GlcN6P: 0.00663 ± 0.0019 s⁻¹
[5]
  self-cleavage kobs at 10000 uM GlcN6P: 0.0137 ± 0.0026 s⁻¹

## G51U C71G
[1]
  kcat: 1.29e-05 ± 2.7e-06 s⁻¹

## A48C G66A
[1]
  kcat: 0.000159 ± 2.8e-05 s⁻¹
[6]
  self-cleavage kobs at 160 uM GlcN6P: < 1e-05 s⁻¹
[4]
  self-cleavage kobs at 2500 uM GlcN6P: 8.27e-05 ± 1.8e-05 s⁻¹
[5]
  self-cleavage kobs at 10000 uM GlcN6P: 0.000121 ± 1.4e-05 s⁻¹

## C50A C61U
[1]
  kcat: < 1e-05 s⁻¹
[3]
  self-cleavage kobs at 640 uM GlcN6P: < 1e-05 s⁻¹

## A52U C67A
[1]
  kcat: 0.000206 ± 1.5e-05 s⁻¹
[2]
  KM: 1480 ± 240 µM
[3]
  self-cleavage kobs at 640 uM GlcN6P: 6.53e-05 ± 8.3e-06 s⁻¹
[4]
  self-cleavage kobs at 2500 uM GlcN6P: 0.000124 ± 1.6e-05 s⁻¹
[5]
  self-cleavage kobs at 10000 uM GlcN6P: 0.000183 ± 2.1e-05 s⁻¹

## A53C C71G
[1]
  kcat: 0.00031 ± 7.7e-05 s⁻¹
[2]
  KM: 1290 ± 620 µM
[6]
  self-cleavage kobs at 160 uM GlcN6P: 4.25e-05 ± 1.8e-05 s⁻¹
[3]
  self-cleavage kobs at 640 uM GlcN6P: 0.000101 ± 1.6e-05 s⁻¹
[4]
  self-cleavage kobs at 2500 uM GlcN6P: 0.000182 ± 3.4e-05 s⁻¹
[5]
  self-cleavage kobs at 10000 uM GlcN6P: 0.000335 ± 7.4e-05 s⁻¹

## C50U C71G
[1]
  kcat: 3.46e-05 ± 1.4e-05 s⁻¹
[3]
  self-cleavage kobs at 640 uM GlcN6P: 4.43e-05 ± 1e-05 s⁻¹

## C50G U57C
[1]
  kcat: 4.02e-05 ± 1.6e-05 s⁻¹
[6]
  self-cleavage kobs at 160 uM GlcN6P: 4.88e-05 ± 2e-05 s⁻¹
[4]
  self-cleavage kobs at 2500 uM GlcN6P: 5.18e-05 ± 1.7e-05 s⁻¹

## U47G G59U
[1]
  kcat: 2.47e-05 ± 4.4e-06 s⁻¹
[4]
  self-cleavage kobs at 2500 uM GlcN6P: 3.31e-05 ± 1.7e-05 s⁻¹
[5]
  self-cleavage kobs at 10000 uM GlcN6P: 2.13e-05 ± 1e-05 s⁻¹

## C50U U57G
[1]
  kcat: < 1e-05 s⁻¹
[3]
  self-cleavage kobs at 640 uM GlcN6P: < 1e-05 s⁻¹

## A52G U55C
[1]
  kcat: 0.00205 ± 0.00032 s⁻¹
[2]
  KM: 3680 ± 850 µM
[7]
  self-cleavage kobs at 40 uM GlcN6P: 3.24e-05 ± 8.4e-06 s⁻¹
[6]
  self-cleavage kobs at 160 uM GlcN6P: 8.26e-05 ± 1.2e-05 s⁻¹
[3]
  self-cleavage kobs at 640 uM GlcN6P: 0.000325 ± 5e-05 s⁻¹
[4]
  self-cleavage kobs at 2500 uM GlcN6P: 0.000739 ± 9.4e-05 s⁻¹
[5]
  self-cleavage kobs at 10000 uM GlcN6P: 0.00158 ± 0.00017 s⁻¹

## A52G U55G
[1]
  kcat: 0.00167 ± 0.00021 s⁻¹
[2]
  KM: 3170 ± 560 µM
[6]
  self-cleavage kobs at 160 uM GlcN6P: 8.73e-05 ± 8.7e-06 s⁻¹
[3]
  self-cleavage kobs at 640 uM GlcN6P: 0.000252 ± 2.5e-05 s⁻¹
[4]
  self-cleavage kobs at 2500 uM GlcN6P: 0.000786 ± 7.4e-05 s⁻¹
[5]
  self-cleavage kobs at 10000 uM GlcN6P: 0.00124 ± 0.00013 s⁻¹

## U49A U55G
[1]
  kcat: 1.38e-05 ± 6.5e-06 s⁻¹

## U49A U55A
[1]
  kcat: 3.61e-05 ± 1.5e-06 s⁻¹
[2]
  KM: 5970 ± 610 µM
[5]
  self-cleavage kobs at 10000 uM GlcN6P: 2.26e-05 ± 9.3e-06 s⁻¹

## C50U G59A
[1]
  kcat: < 1e-05 s⁻¹
[7]
  self-cleavage kobs at 40 uM GlcN6P: < 1e-05 s⁻¹
[6]
  self-cleavage kobs at 160 uM GlcN6P: < 1e-05 s⁻¹
[4]
  self-cleavage kobs at 2500 uM GlcN6P: < 1e-05 s⁻¹
[5]
  self-cleavage kobs at 10000 uM GlcN6P: < 1e-05 s⁻¹

## G51A C67U
[1]
  kcat: < 1e-05 s⁻¹
[7]
  self-cleavage kobs at 40 uM GlcN6P: < 1e-05 s⁻¹

## G51U G60C C68A
[1]
  kcat: 2.85e-05 ± 8.6e-06 s⁻¹

## A52G G62U
[1]
  kcat: < 1e-05 s⁻¹

## C50G C70G
[1]
  kcat: 0.000103 ± 1.8e-05 s⁻¹
[7]
  self-cleavage kobs at 40 uM GlcN6P: 7.4e-05 ± 7.4e-06 s⁻¹
[6]
  self-cleavage kobs at 160 uM GlcN6P: 0.000142 ± 9.9e-06 s⁻¹
[3]
  self-cleavage kobs at 640 uM GlcN6P: 0.000112 ± 1.2e-05 s⁻¹
[4]
  self-cleavage kobs at 2500 uM GlcN6P: 9.3e-05 ± 1e-05 s⁻¹
[5]
  self-cleavage kobs at 10000 uM GlcN6P: 8.05e-05 ± 8.7e-06 s⁻¹

## A48G U55A
[1]
  kcat: 0.000106 ± 2.6e-06 s⁻¹
[2]
  KM: 1160 ± 180 µM
[4]
  self-cleavage kobs at 2500 uM GlcN6P: 7.8e-05 ± 3.7e-05 s⁻¹
[5]
  self-cleavage kobs at 10000 uM GlcN6P: 9.5e-05 ± 8.9e-06 s⁻¹

## A48G U55G
[1]
  kcat: 9.18e-05 ± 6.4e-06 s⁻¹
[2]
  KM: 759 ± 210 µM
[7]
  self-cleavage kobs at 40 uM GlcN6P: < 1e-05 s⁻¹
[3]
  self-cleavage kobs at 640 uM GlcN6P: 4.19e-05 ± 7.6e-06 s⁻¹
[4]
  self-cleavage kobs at 2500 uM GlcN6P: 0.000108 ± 3.8e-05 s⁻¹
[5]
  self-cleavage kobs at 10000 uM GlcN6P: 8.43e-05 ± 7.8e-06 s⁻¹
